Target: T1, CesT (residues 1-156), 6xHis-tagged, wild type (enteropathogenic E. coli (EPEC) O127:H6 …, UniProt P21244 1-156)
T1 construct: source: E. coli BL21(DE3), purified (Ni-NTA, gel filtration); not shown: His6, N-terminal, kept
Experiment: SPR
Conditions: both partners purified

T1 sequence (P21244 whole entry, the tested form may be a part): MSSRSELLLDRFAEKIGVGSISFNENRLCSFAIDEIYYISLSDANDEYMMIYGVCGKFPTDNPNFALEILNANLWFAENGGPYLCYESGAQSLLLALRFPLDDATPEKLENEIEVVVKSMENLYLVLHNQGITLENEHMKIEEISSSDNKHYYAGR

B1: CsrA (residues 1-61), GST tag removed (natural protein)
chain: not shown
notes: also called WT CsrA; native CsrA
Q: Which “KD of the first ligand binding site in CsrA (Bivalent-Analyte model)” value does the source give for B1 here?
A: ~148 nM

— PMC5864733 (Nature Communications, 2018)
